The text below walks through data of patent EP4729546A1 (Jiangsu BioJeTay Biotechnology Co., Ltd., dated 2026).

B1: FX-Y17-Y2 (antibody, V domains shown)
VH: EVQLLESGGGLVQPGGSLRLSCAGSGFSFGSQTMSWVRQAPGKGLEWVSSISHISGRTYYADSVKGRFTISRDNSKNTLYLQMNSLRAEDTAVYYCTKSHAFDVWGQGTMVTVSS
VL: EIVLTQSPATLSVSPGERATLSCRASQSVYSALAWYQQKPGQAPRLLIYGASTRATGIPARFSGSGSGTEFTLTISSLQSEDFAVYYCQQNNKWPLSFGGGTKVEIK
B2: FX-Y17-Y23 (antibody, V domains shown)
VH: B1 VH with H53V, T58S, K98R
VL: B1 VL with Y30W, A32N, N91Y, N92H
B3: FX-Y17-Y20 (antibody, V domains shown)
VH: B1 VH with H53V, T58S
VL: B1 VL with N91Y, N92H
B4: FX-Y17-Y7 (antibody, V domains shown)
VH: B1 VH with H53V, T58A
VL: B1 VL with N91Y, N92H
B5: FX-Y17-Y5 (antibody, V domains shown)
VH: B1 VH with H53V, T58Y
VL: B1 VL with N91Y, N92H
B6: FX-Y17-Y18 (antibody, V domains shown)
VH: B1 VH with H53V, T58S, S99H
VL: B1 VL with Y30W, A32N, N91Y, N92H
B7: FX-Y17-Y46 (antibody, V domains shown)
VH: B1 VH with H53Y, S99G
VL: B1 VL with Y30W, A32N, N91Y, N92Q
B8: FX-Y17-Y8 (antibody, V domains shown)
VH: B1 VH with H53V, G56R
VL: B1 VL with Y30W, A32N, N91Y, N92H
B9: FX-Y17-Y16 (antibody, V domains shown)
VH: B1 VH with H53V, T58S, T97A
VL: B1 VL with N91Y, N92H
B10: FX-Y17-Y21 (antibody, V domains shown)
VH: B1 VH with T97A
VL: B1 VL
B11: FX-Y17-Y1 (antibody, V domains shown)
VH: B1 VH with H53V, G56R
VL: B1 VL with N91Y, N92H
B12: FX-Y17-Y22 (antibody, V domains shown)
VH: B1 VH with H53Y, K98R
VL: B1 VL with Y30W, A32N, N91Y, N92H
B13: FX-Y17-Y15 (antibody, V domains shown)
VH: B1 VH with H53V, T58P
VL: B1 VL with N91Y, N92H
B14: FX-Y17-Y17 (antibody, V domains shown)
VH: B1 VH with H53Y, S99G
VL: B1 VL with Y30W, A32N, N91Y, N92H
B15: FX-Y17-Y37 (antibody, V domains shown)
VH: B1 VH with H53V, T58S
VL: B1 VL with Y30W, A32N, N91Y, N92H
B16: FX-Y17-Y14 (antibody, V domains shown)
VH: B1 VH with A101R
VL: B1 VL
B17: FX-Y17-Y30 (antibody, V domains shown)
VH: B1 VH with H53V, T97A
VL: B1 VL with Y30F, A32N, N91Y, N92H, K93W
B18: FX-Y17-Y3 (antibody, V domains shown)
VH: B1 VH with H53Y
VL: B1 VL with Y30W, A32N, N91Y, N92H
B19: FX-Y17-Y31 (antibody, V domains shown)
VH: B1 VH with H53V, T58N, T97A
VL: B1 VL with Y30W, A32N, N91Y, N92H
B20: FX-Y17-Y9 (antibody, V domains shown)
VH: B1 VH with H53V, T58K, T97A
VL: B1 VL with N91Y, N92H
B21: FX-Y17-Y10 (antibody, V domains shown)
VH: B1 VH with H53V, T58A, S99A
VL: B1 VL with N91Y, N92H
B22: FX-Y17-Y19 (antibody, V domains shown)
VH: B1 VH with H53V, G56K, K98R
VL: B1 VL with N91Y, N92H
B23: FX-Y17-Y13 (antibody, V domains shown)
VH: B1 VH with H53V, G56R, K98R
VL: B1 VL with A32N, N91Y, N92H
B24: FX-Y17-Y12 (antibody, V domains shown)
VH: B1 VH with H53V, S99W
VL: B1 VL with V29L, A32H, N91Y, N92K
B25: FX-Y17-Y40 (antibody, V domains shown)
VH: B1 VH with H53V, S99A
VL: B1 VL with Y30W, A32N, N91Y, N92H
B26: FX-Y17-Y36 (antibody, V domains shown)
VH: B1 VH with H53V, G56K
VL: B1 VL with N91Y, N92H
B27: FX-Y17-Y28 (antibody, V domains shown)
VH: B1 VH with H53V, S99Q
VL: B1 VL with N91Y, N92H
B28: FX-Y17-Y35 (antibody, V domains shown)
VH: B1 VH with H53V, T58D, T97A
VL: B1 VL with N91Y, N92H
B29: FX-Y17-Y6 (antibody, V domains shown)
VH: B1 VH with H53Y
VL: B1 VL with N91Y, N92H
B30: FX-Y17-Y39 (antibody, V domains shown)
VH: B1 VH with A101D
VL: B1 VL
B31: FX-Y17-Y38 (antibody, V domains shown)
VH: B1 VH with H53V, G56R, T97A
VL: B1 VL with N91Y, N92H
B32: FX-Y17-Y33 (antibody, V domains shown)
VH: B1 VH with H53V, T58K
VL: B1 VL with N91Y, N92H

Numbering of substitutions follows the chain as printed.

In one test the target is huFXII-his (human) (UniProt P00748). The test can be described thus: cell-based or functional assay.
Turning to B1, the IC50 of inhibition of cleavage of chemical substrate S2302 by FXIIa (OD405) came out at 0.0178 µg/mL.
Consider B2, for which the IC50 of inhibition of cleavage of chemical substrate S2302 by FXIIa (OD405) was 0.0129 µg/mL.
As for B3, the IC50 of inhibition of cleavage of chemical substrate S2302 by FXIIa (OD405) was determined as 0.0187 µg/mL.
For the molecule B4, the IC50 of inhibition of cleavage of chemical substrate S2302 by FXIIa (OD405) is 0.02 µg/mL.
On to B5, for which the IC50 of inhibition of cleavage of chemical substrate S2302 by FXIIa (OD405) was 0.0254 µg/mL.
On the same count and under the same terms, the value for B6 was 0.0242 µg/mL.
B7 had an IC50 of inhibition of cleavage of chemical substrate S2302 by FXIIa (OD405) of 0.0321 µg/mL.
Consider B8, for which the IC50 of inhibition of cleavage of chemical substrate S2302 by FXIIa (OD405) amounted to 0.0196 µg/mL.
As to B9, the IC50 of inhibition of cleavage of chemical substrate S2302 by FXIIa (OD405) was determined as 0.021 µg/mL.
As for B10, the IC50 of inhibition of cleavage of chemical substrate S2302 by FXIIa (OD405) was found to be 0.0132 µg/mL.
B11 showed an IC50 of inhibition of cleavage of chemical substrate S2302 by FXIIa (OD405) of 0.0237 µg/mL.
On the same count and under the same terms, the value for B12 was 0.0202 µg/mL.
As for B13, the IC50 of inhibition of cleavage of chemical substrate S2302 by FXIIa (OD405) was 0.0202 µg/mL.
Take B14: the IC50 of inhibition of cleavage of chemical substrate S2302 by FXIIa (OD405) came to 0.0199 µg/mL.
The same measure, in the same setting: the value for B15 was 0.0143 µg/mL; that for B16 was 0.0138 µg/mL; that for B17 was 0.0127 µg/mL.
Still for that read-out and setting: the value for B18 was 0.0154 µg/mL; that for B19 was 0.0156 µg/mL.
Regarding B20, the IC50 of inhibition of cleavage of chemical substrate S2302 by FXIIa (OD405) was found to be 0.0244 µg/mL.
The same measure, in the same setting: next, B21: 0.028 µg/mL; B22: 0.0214 µg/mL; B23: 0.0259 µg/mL.
B24 registered an IC50 of inhibition of cleavage of chemical substrate S2302 by FXIIa (OD405) of 0.0296 µg/mL.
Regarding B25, the IC50 of inhibition of cleavage of chemical substrate S2302 by FXIIa (OD405) is 0.0155 µg/mL.

The target of another test is T1, huFXII-his (human, UniProt P00748 20-615).
T1 sequence (looked up): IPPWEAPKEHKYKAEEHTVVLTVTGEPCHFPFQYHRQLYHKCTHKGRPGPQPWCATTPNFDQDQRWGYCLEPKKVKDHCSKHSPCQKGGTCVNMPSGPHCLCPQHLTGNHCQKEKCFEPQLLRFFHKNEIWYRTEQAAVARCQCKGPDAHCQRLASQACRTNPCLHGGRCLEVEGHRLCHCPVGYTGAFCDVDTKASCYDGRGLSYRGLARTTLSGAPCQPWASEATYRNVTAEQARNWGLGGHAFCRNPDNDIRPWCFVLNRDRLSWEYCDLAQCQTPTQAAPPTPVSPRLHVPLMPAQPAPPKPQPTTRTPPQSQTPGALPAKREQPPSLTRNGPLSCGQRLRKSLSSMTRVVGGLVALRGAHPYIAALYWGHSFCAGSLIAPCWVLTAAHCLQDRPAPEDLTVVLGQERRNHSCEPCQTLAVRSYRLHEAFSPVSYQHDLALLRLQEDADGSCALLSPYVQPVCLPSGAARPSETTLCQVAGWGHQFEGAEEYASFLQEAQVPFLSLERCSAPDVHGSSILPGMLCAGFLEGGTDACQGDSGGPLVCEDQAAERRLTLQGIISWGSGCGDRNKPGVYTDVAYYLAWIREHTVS
The experiment in a line: cell-based or functional assay.
On to B26, for which the “IC50 of inhibition of cleavage of chemical substrate S2302 by FXIIa (OD405)” value (shortened to “IC50 of inhibition of cleavage … (OD405)”) is 0.0155 µg/mL.
As to B27, the “IC50 of inhibition of cleavage … (OD405)” value turned out to be 0.0267 µg/mL.
The same measure, in the same setting: the value for B28 was 0.0139 µg/mL.
B29: the “IC50 of inhibition of cleavage … (OD405)” value turned out to be 0.0157 µg/mL.
B30: the “IC50 of inhibition of cleavage … (OD405)” value worked out at 0.0422 µg/mL.
Still for that read-out and setting: next, B31: 0.016 µg/mL; B32: 0.022 µg/mL.

Another test deals with huFXII-his (human) (UniProt P00748). The test can be described thus: ELISA, huFXII-his coated at 1 µg/ml, HRP anti-human secondary, OD450. On the technique in general: In an ELISA, binding on a coated surface is turned into a signal by an enzyme label.
B1 displayed an EC50 of 0.164 µg/mL.
Same read-out and setting: next, B2: 0.0942 µg/mL.
Same read-out and setting: the value for B3 was 0.127 µg/mL; that for B4 was 0.136 µg/mL.
The molecule B5 had an EC50 of 0.167 µg/mL.
On the same count and under the same terms, the value for B6 was 0.172 µg/mL; that for B7 was 0.257 µg/mL.
The molecule B8 came in with an EC50 of 0.237 µg/mL.
With B9, the EC50 was 0.125 µg/mL.
In turn, B10 registered an EC50 of 0.101 µg/mL.
Same read-out and setting: next, B11: 0.151 µg/mL; B12: 0.187 µg/mL.
On the same count and under the same terms, the value for B13 was 0.131 µg/mL.
Same read-out and setting: next, B14: 0.169 µg/mL; B15: 0.0629 µg/mL.
Molecule B16 displayed a concentration giving a half-maximal response (EC50) of 0.14 µg/mL.
Same read-out and setting: next, B17: 0.083 µg/mL.
On the same count and under the same terms, next, B18: 0.216 µg/mL.
Still for that read-out and setting: next, B19: 0.117 µg/mL.
B20 registered a concentration for a half-maximal effect (EC50) of 0.228 µg/mL.
For the molecule B21, the EC50 amounted to 0.161 µg/mL.
Still for that read-out and setting: next, B22: 0.149 µg/mL; B23: 0.128 µg/mL.
Same read-out and setting: next, B24: 0.364 µg/mL; B25: 0.0781 µg/mL.

In general, EC50 refers to the midpoint of the concentration-response curve.
